In the supplement of paper PMC10567573:

B1: ZNF263 (parent)
chain: QRTHTGEKPYKCPECGEIFAHSSN
B2: FAM189A2 (parent)
chain: GSEAAVIPLDLGCTQVTQDGDIPN

Variants of: B1
Assay: protein stability index of a GFP-peptide fusion (GPS, HEK-293T) (PSI 1-6); higher = more stable
Conditions: c terminus: a fixed tail appended
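Note: lentivirally expressed fusions sorted by FACS into six bins by GFP to DsRed ratio, PSI derived from sequencing read proportions per bin multiplied by bin number.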

Protein stability index of substitutions, site by site:
S23: H 4.71 | N 3.34 | Y 2.73 | M 2.81 | C 5.55 | A 3.61 | K 3.79 | R 2.77 | E 4.67 | F 2.81 | I 3.24 | T 3.14 | P 2.72 | V 2.71 | W 2.36 | D 3.5 | L 2.75 | Q 3.31 | G 3.23
A20: P 3.53 | V 3.04 | Y 3.49 | M 3.25 | F 3.18 | H 3.45 | W 3.07 | I 3.46 | R 2.93 | T 3.11 | C 3.75 | K 3.25 | Q 3.59 | E 3.76 | L 2.63 | G 3.16 | D 3.67 | N 3.55 | S 3.83
S22: E 3.62 | D 3.64 | T 2.92 | K 3.16 | R 2.38 | L 2.39 | I 2.52 | C 4.15 | Q 2.81 | N 3.38 | F 2.8 | P 2.88 | G 2.92 | H 3.87 | W 3.31 | M 2.49 | A 2.88 | Y 2.71 | V 2.91
H21: L 2.3 | C 3.5 | M 3.19 | V 2.35 | E 3.21 | P 3.5 | N 2.86 | W 1.95 | R 3.16 | T 3.15 | F 2.74 | A 2.95 | Y 2.86 | D 2.5 | S 3.43 | I 2.05 | G 3.22 | K 3.78 | Q 3.43
G16: M 3.45 | I 2.67 | T 3.43 | F 2.92 | Y 3.18 | V 3.61 | E 4 | P 4.06 | N 3.09 | S 3.14 | C 2.84 | W 2.64 | L 3.22 | R 3 | Q 3.23 | D 3.9 | A 3.54 | K 3.27 | H 3.31
N24: E 3.15 | I 2.65 | K 3.99 | Q 3.65 | Y 2.96 | P 2.61 | H 3.49 | F 2.74 | V 2.61 | R 2.39 | D 3.88 | T 3.54 | C 5.06 | S 3.16 | G 3.04 | M 2.75 | A 3.74 | W 2.85 | L 2.95
I18: Q 3.91 | T 3.9 | M 3.73 | V 3.56 | H 3.29 | G 4.05 | D 3.52 | N 3.79 | R 3 | W 2.41 | F 2.97 | K 3.83 | L 3.18 | P 3.43 | C 3.87 | S 2.53 | A 3.48 | E 3.99 | Y 3.48
E17: Y 4.23 | C 4.6 | G 2.53 | W 3.01 | I 2.85 | T 4.77 | H 4.49 | V 2.6 | P 3.72 | Q 3.86 | L 2.6 | M 3.27 | F 4.53 | A 4.67 | D 3.13 | K 3.98 | N 3.83 | S 4.02 | R 3.38
F19: I 3.37 | R 3.75 | L 3.16 | V 3.46 | Y 3.7 | S 3.84 | W 2.47 | D 4.87 | N 4.37 | A 4.38 | E 4.25 | C 4.9 | M 3.56 | K 4.08 | T 4.1 | H 4.82 | G 4.28 | P 3.75 | Q 3.83
C15: R 4.29 | V 4.42 | S 4.29 | T 4.63 | Y 3.68 | W 3.88

Variants of: B2
Assay: as above
Conditions: c terminus: a fixed tail appended

Protein stability index of substitutions, site by site:
A4: I 4.37 | L 5.34 | K 5.49 | N 5.58 | T 5.27 | C 4.74 | M 4.81 | Q 5.36 | P 5.53 | E 5.57 | H 4.7 | F 4.44 | D 5.61 | Y 4.79 | W 4.53 | V 4.97 | R 5.4 | G 5.29 | S 5.24
I7: L 4.86 | H 5.23 | N 5.66 | T 5.67 | Y 5.32 | A 5.57 | M 5.24 | S 5.58 | V 5.23 | D 5.93 | R 4.98 | Q 5.24 | E 5.78 | C 5.04 | P 5.47 | F 4.96 | K 5.23 | W 4.79 | G 5.6
V6: T 5.58 | M 5.25 | W 4.92 | N 5.44 | L 5.16 | D 5.63 | A 5.5 | F 4.91 | Q 5.33 | R 5.57 | K 5.71 | Y 5.35 | C 5.43 | P 5.76 | G 5.33 | E 5.65 | S 5.58 | I 5.25 | H 5.51
P8: A 4.68 | Q 4.22 | S 4.46 | T 4.42 | R 4.53 | I 1.87 | N 5.16 | F 2.34 | D 4.97 | H 4.74 | W 2 | Y 2.83 | M 3.41 | G 5.18 | L 2.65 | V 2.54 | C 4.03 | K 5 | E 4.85
L9: D 5.48 | C 5.5 | F 4.92 | A 4.91 | E 5.41
S2: A 5.71 | W 3.93 | P 5.21 | Y 4.8 | G 5.03 | R 5.61 | F 4.96 | I 5.23 | K 4.64 | Q 5.36 | C 5.49 | H 5.25 | L 4.77 | E 5.55 | D 5.51 | V 4.85 | N 5.52 | T 5.01 | M 4.89
G1: N 5.46 | V 5.2 | H 5.29 | Q 5.44 | W 4.31 | R 5.24 | S 5.22 | T 5.58 | A 5.53 | I 4.68 | K 5.25 | M 5.33 | E 5.05 | C 4.75 | P 5.38 | F 4.84 | Y 4.26 | L 5.43 | D 5.34
E3: F 4.14 | M 4.45 | K 5.35 | Y 4.18 | V 4.49 | P 5.23 | L 4.54 | Q 5.3 | T 5.11 | D 5.38 | N 5.1 | I 3.58 | H 4.49 | C 4.83 | R 5.08 | S 5.1 | G 5.11 | W 2.96 | A 5.2
A5: K 5.19 | Q 5.1 | Y 4.15 | V 5.08 | C 4.9 | F 4.64 | W 3.95 | T 5.43 | E 5.13 | D 5.74 | N 5.17 | R 5.2 | M 5.01 | I 3.79 | H 5.2 | P 5.68 | G 5.36 | L 4.57 | S 5.51
